From patent US20220241369A1, “COMPOSITIONS AND METHODS OF MODULATING INFLAMMATION” (La Jolla Institute for Allergy and Immunology, priority 2018, published 2022)

Test system: OVA-induced food allergy (allergic diarrhea)
Assay: IgE-mediated experimental food allergy, i.g. pretreatment with HRF inhibitor before each OVA challenge
Type: in vivo, mouse
Description: FIGS. 1A-1I show GST-N19 inhibits the development of diarrhea and intestinal mastocytosis in murine food allergy. Mice were i.p. sensitized with OVA ([…]) plus alum on days 0 and 14. From day 28, mice were i.g. challenged with OVA (50 mg) three times a week. Sensitized mice were either non-pretreated (−) or i.g. pretreated with 100 μg of GST or GST-N19 (N19). (FIG. 1A) Procedure scheme. (FIG. 1B) The development of diarrhea was monitored for 90 min after each OVA challenge. (n=5 for non-sensitized group, n=3 for inhibitor non-pretreated group, n=4 for GST group, n=6 for N19 group, data are representative of at least 3 independent experiments) Log-rank test: p=0.028 (GST vs. GST-N19), p=0.036 (control vs. GST-N19). […] (FIG. 1C-FIG. 1E) Total IgE, IgG1, HRF, and HRF-reactive IgE and IgG in sera were measured by ELISA. (FIG. 1F) Serum mMCP-1 was also measured by ELISA. (FIG. 1G) Sections of jejunum were stained with chloroacetate esterase to identify mast cells. Sections indicated by rectangles are enlarged in lower rows. Bar=100 μm in large pictures and 50 μm in insets. (FIG. 1H) Flow cytometry was performed to enumerate MMC9s (Lin^−c-Kit^+ST2^+IL-17RB^−Integrin β7^lo) in jejunum. (n=14 for non-sensitized group, n=15 for inhibitor non-pretreated group, n=9 for GST group, n=9 for GST-N19 group, pooled data of 3 independent experiments) (FIG. 1I) Cytokine mRNAs in jejunum were quantified by qRT-PCR. *, **: p<0.05, p<0.01 by ANOVA with Tukey's multiple comparison.
Mice were i.p. sensitized with OVA (50 μg/mouse) plus alum on days 0 and 14. From day 28, mice were i.g. challenged with OVA (25 or 50 mg) or PBS (control) three times a week. Before each challenge, mice were starved for 3 h, then i.g. pretreated with GST, GST-N19 (100 μg/mouse), synthetic N19 peptide, or HRF-2CA. The development of diarrhea was monitored for 90 min after OVA challenge. Diarrhea severity (30) was based on states of stool: solid (score 0), funicular (score 1), slurry (score 2), and watery (score 3).
For histologic analysis, jejunal tissue was fixed in 10% formalin. Mast cells in jejunal sections were detected by chloroacetate esterase staining. IgE, IgG, IgG1, IgG2a, mMCP-1, HRF, HRF-reactive IgE, and HRF-reactive IgG 24 h after the last OVA challenge were measured by ELISA (see Supplemental Information). Cytokine mRNAs in jejunum were quantified by qRT-PCR.
Twenty-four hours after the last OVA challenge, mice were sacrificed and small intestines (0.5-15 cm from stomach) were collected. The intestinal tissues were opened longitudinally and washed with HBSS. The washed tissues were incubated with 5 mM EDTA-HBSS for 30 min at 4° C., transferred to 30 ml HBSS in 50 ml tubes, and vigorously shaken to remove intestinal epithelial cells. The tissues were then washed with 10 ml of 10% FCS RPMI medium. Tissues were cut into tiny pieces and incubated with 2.4 mg/ml Collagenase D and 0.2 mg/ml DNase for 30 min at 37° C. Then cells were washed, resuspended in 44% Percoll solution, and slowly loaded on the top of 67% Percoll solution. The cells were centrifuged (1800 rpm, 20 min) and lymphocyte fractions were collected and used for detection of MMC9s (Lin^−c-Kit^+ST2^+IL-17RB^−Integrin β7^lo).
The cells were first incubated with 2.4G2 for 15 min at 4° C. and further incubated with Abs (PE-anti-07 integrin mAb (clone FIB504), PerCP/Cy5.5-anti-CD4 mAb (clone RM4-5), PerCP/Cy5.5-anti-CD8 mAb (clone 53-6.7), PerCP/Cy5.5-anti-CD11b mAb (clone M1/70), PerCP/Cy5.5-anti-CD11c mAb (clone N418), PerCP/Cy5.5-anti-B220 mAb (RA3-6B2), PerCP/Cy5.5-anti-Ly-6G/Ly-6C mAb (clone RB6-8C5), PerCP/Cy5.5-anti-CD335 mAb (clone 29A1.4), AlexaFluor647-anti-IL-17RB (clone 9B10), APC/Cy7-anti-CD117 (clone 2B8), Biotin-anti-ST2 (clone DIH9)) (Biolegend) for 30 min at 4° C. After washed, the cells were incubated with SA-BV421 (Biolegend) for 30 min at 4° C. MMC9 population was identified using FACS Canto. Data were analyzed using FlowJo software.

B1: HRF-2CA-His6, a monomeric mutant of mouse HRF (protein)
chain: MIIYRDLISHDELFSDIYKIREIADGLALEVEGKMVSRTEGAIDDSLIGGNASAEGPEGEGTESTVVTGVDIVMNHHLQETSFTKEAYKKYIKDYMKSLKGKLEEQKPERVKPFMTGAAEQIKHILANFNNYQFFIGENMNPDGMVALLDYREDGVTPFMIFFKDGLEMEKAHHHHHH
HRF-reactive IgE levels (OVA-sensitized mice after OVA challenges, i.g. pretreatment): did not affect | reduction of HRF-reactive IgG levels (after eleven OVA challenges): not affected | number of mucosal mast cells in jejunum (intestinal mastocytosis) (i.g. pretreatment before each OVA challenge, chloroacetate esterase staining): inhibits | levels of total IgE, IgG1, IgG2a or HRF-reactive IgE and IgG (i.g. pretreatment, serum ELISA): failed to affect | diarrhea occurrence / incidence (sensitized mice pretreated i.g. with 100 μg before each OVA challenge): inhibits
